The values below come from US6844171 (Harvard, dated 2005).

Series [1] has as its target δ25-60(Y) peptide (regions B+C of the HDAg multimer-forming domain, with C-terminal tyrosine) (hepatitis delta virus (American strain)). Nature of the series: CD spectroscopy in PBS at 37° C.
Series [2] concerns the molecule itself. Nature of the series: glutaraldehyde cross-linking, MALDI-TOF mass spectrometry.
Series [3] has as its target δ12-49 peptide (regions A+B of the HDAg multimer-forming domain) (hepatitis delta virus (American strain)). Description: CD spectroscopy in PBS at 37° C.

Take “δ25-60(Y) peptide (regions B+C of the HDAg multimer-forming domain, with C-terminal tyrosine)”: the [θ222]/[θ208] ratio (indicator of coiled-coil formation) in series [1] stood at 0.76.

B1: recombinant small delta antigen (r-HDAg-S), full length, expressed in E. coli from plasmid pR5δV5 (other)
chain: SRSERRKDRGGREDILEQWVSGRKKLEELERDLRKLKKKIKKLEEDNPWLGNIKGIIGKKDKDGEGAPPAKKLRMDQMEIDAGPRKRPLRGGFTDKERQDHRRRKALENKRKQLSSGGKSLSREEEEELKRLTEEDEKRERRIAGPSVGGVNPLEGGSRGAPGGGFVPSMQGVPESPFARTGEGLDIRGSQGFP
notes: also called r-δAg-S; rδAg-S
B1: the “ratio of the masses of the cross-linked species to the monomer” value in series [2] came to 8.1.

B2: δ12-49 peptide (regions A+B of the HDAg multimer-forming domain) (peptide)
peptide: GREDILEQWVSGRKKLEELERDLRKLKKKIKKLEEDNP
For the molecule B2, the [θ222]/[θ208] ratio (indicator of coiled-coil formation) in series [3] turned out to be 0.79.
